Test results taken from paper PMC5972661, “ECD1 functions as an RNA-editing trans-factor of rps14-149 in plastids and is required for early chloroplast development in seedlings”.

What was measured:
MBP-ECD1 [1] = target: T1, MBP-ECD1 (UniProt Q5G1T1 51-850); assay: EMSA; 25, 50, 100 nM protein, 10 nM probe; unlabeled same RNA (10-, 50-, 100-fold) used as competitor confirmed specificity; LightShift Chemiluminescent RNA EMSA Kit (Thermo 20158), 20 min at 25 °C, 6% Tris-borate gel in 0.5x TBE; binding buffer, salt and pH not stated; settings: protein: recombinant; tags: N-terminal MBP; primer adds HHHHHH-ENLYFQG (TEV site); label: 5' biotin; single strand
T1 sequence: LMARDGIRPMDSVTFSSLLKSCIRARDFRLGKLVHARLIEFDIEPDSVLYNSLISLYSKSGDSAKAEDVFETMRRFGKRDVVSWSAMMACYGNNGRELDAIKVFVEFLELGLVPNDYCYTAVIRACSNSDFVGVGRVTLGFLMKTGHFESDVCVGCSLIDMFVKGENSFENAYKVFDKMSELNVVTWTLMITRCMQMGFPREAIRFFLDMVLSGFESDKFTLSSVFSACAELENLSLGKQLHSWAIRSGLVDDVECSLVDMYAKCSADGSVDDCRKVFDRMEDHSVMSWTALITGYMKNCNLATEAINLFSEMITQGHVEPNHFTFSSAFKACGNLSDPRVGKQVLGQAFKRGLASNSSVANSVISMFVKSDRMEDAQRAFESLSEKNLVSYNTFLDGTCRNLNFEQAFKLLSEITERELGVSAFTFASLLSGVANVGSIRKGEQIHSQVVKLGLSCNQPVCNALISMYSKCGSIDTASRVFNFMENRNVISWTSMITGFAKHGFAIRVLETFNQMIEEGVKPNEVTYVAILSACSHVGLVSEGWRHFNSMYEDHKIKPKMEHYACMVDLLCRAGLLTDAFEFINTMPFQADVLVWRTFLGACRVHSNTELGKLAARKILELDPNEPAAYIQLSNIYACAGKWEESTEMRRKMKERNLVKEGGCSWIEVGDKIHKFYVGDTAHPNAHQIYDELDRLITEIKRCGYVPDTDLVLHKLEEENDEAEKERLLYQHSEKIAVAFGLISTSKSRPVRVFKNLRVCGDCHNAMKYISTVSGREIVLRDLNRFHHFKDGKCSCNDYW

MBP-ECD1 [2] = target: T1, MBP-ECD1; assay: EMSA; 25, 50, 100 nM protein, 10 nM probe; LightShift Chemiluminescent RNA EMSA Kit (Thermo 20158), 20 min at 25 °C, 6% Tris-borate gel in 0.5x TBE; binding buffer, salt and pH not stated; settings: protein: recombinant; tags: N-terminal MBP; primer adds HHHHHH-ENLYFQG (TEV site); label: 5' biotin; single strand

Binder: GAAAAUUCAUGGAAAAUUACAAUCCCCACCGCG (ssRNA) [rps14-149]
- binding result (MBP-ECD1 [1]): binds

Binder: AAAUAUCAUUUGAUUCGUCGAUCCUCAAAAAAG (ssRNA) [rps14-80]
- binding result (MBP-ECD1 [2]): no binding
